Each block holds one substance with its values, some of them ahead of it.
Tests used:
[1] = target: D3H44 Fab heavy chain S188G; experiment: LCCA, L1:L2 DNA 1:3 normalised to 1:1, SPR of light chain tags; competitor m42
[2] = target: D3H44 Fab heavy chain S188L; experiment: as above
[3] = target: D3H44 Fab heavy chain L124W_L143F; experiment: LCCA, L1:L2 DNA 1:3 normalised to 1:1, SPR of light chain tags; competitor m51
[4] = target: D3H44 Fab heavy chain L124A; experiment: as above
[5] = target: D3H44 Fab heavy chain of LCCA set 6036; experiment: as above
[6] = target: D3H44 Fab heavy chain S188L_V190Y; experiment: LCCA, L1:L2 DNA 1:9 normalised to 1:1, SPR of light chain tags; competitor m45
[7] = target: D3H44 Fab heavy chain A139G_F174V_V190A; experiment: as above
[8] = target: D3H44 Fab heavy chain S188L_V190Y; experiment: LCCA, L1:L2 DNA 1:3 normalised to 1:1, SPR of light chain tags; competitor m45
[9] = target: D3H44 Fab heavy chain A139G_F174V_V190A; experiment: as above
[10] = target: D3H44 Fab heavy chain S188L_V190F; experiment: LCCA, L1:L2 DNA 1:9 normalised to 1:1, SPR of light chain tags; competitor m49
[11] = target: D3H44 Fab heavy chain S188L_V190F; experiment: LCCA, L1:L2 DNA 1:3 normalised to 1:1, SPR of light chain tags; competitor m49
[12] = target: D3H44 Fab heavy chain S188L; experiment: LCCA, L1:L2 DNA 1:3 normalised to 1:1, SPR of light chain tags; competitor m48
[13] = target: D3H44 Fab heavy chain S188L; experiment: LCCA, L1:L2 DNA 1:3 normalised to 1:1, SPR of light chain tags; competitor m47
[14] = target: D3H44 Fab heavy chain L143E_K145T_S188L; experiment: LCCA, L1:L2 DNA 1:3 normalised to 1:1, SPR of light chain tags; competitor m37
[15] = target: D3H44 Fab heavy chain L143E_K145T; experiment: LCCA, L1:L2 DNA 1:3 normalised to 1:1, SPR of light chain tags; competitor m32
[16] = target: D3H44 Fab heavy chain L143K; experiment: LCCA, L1:L2 DNA 1:3 normalised to 1:1, SPR of light chain tags; competitor m34
[17] = target: D3H44 Fab heavy chain L143E_K145T_S188L; experiment: as above
[18] = target: D3H44 Fab heavy chain L143R; experiment: as above
[19] = target: D3H44 Fab heavy chain L143E_K145T_S188L; experiment: LCCA, L1:L2 DNA 1:3 normalised to 1:1, SPR of light chain tags; competitor m38
[20] = target: D3H44 Fab heavy chain L143E_K145T_S188L; experiment: LCCA, L1:L2 DNA 1:3 normalised to 1:1, SPR of light chain tags; competitor m40
[21] = target: D3H44 Fab heavy chain L143E_K145T; experiment: LCCA, L1:L2 DNA 1:3 normalised to 1:1, SPR of light chain tags; competitor m35
[22] = target: D3H44 Fab heavy chain F122C_C233S; experiment: LCCA, L1:L2 DNA 1:3 normalised to 1:1, SPR of light chain tags; competitor m42
[23] = target: D3H44 Fab heavy chain L143E_K145T_S188L; experiment: LCCA, L1:L2 DNA 1:3 normalised to 1:1, SPR of light chain tags; competitor m33
[24] = target: D3H44 Fab heavy chain L143R; experiment: as above
[25] = target: D3H44 Fab heavy chain P175C_C233S; experiment: LCCA, L1:L2 DNA 1:9 normalised to 1:1, SPR of light chain tags; competitor m42
[26] = target: D3H44 Fab heavy chain P175C_C233S; experiment: LCCA, L1:L2 DNA 1:3 normalised to 1:1, SPR of light chain tags; competitor m42
[27] = target: D3H44 Fab heavy chain L124A_S186K; experiment: LCCA, L1:L2 DNA 1:3 normalised to 1:1, SPR of light chain tags; competitor m33
[28] = target: D3H44 Fab heavy chain A139C_C233S; experiment: LCCA, L1:L2 DNA 1:9 normalised to 1:1, SPR of light chain tags; competitor m42
[29] = target: D3H44 Fab heavy chain A139C_C233S; experiment: LCCA, L1:L2 DNA 1:3 normalised to 1:1, SPR of light chain tags; competitor m42
[30] = target: D3H44 Fab heavy chain S186R; experiment: LCCA, L1:L2 DNA 1:3 normalised to 1:1, SPR of light chain tags; competitor m33
[31] = target: D3H44 Fab heavy chain L143E_K145T; experiment: as above
[32] = target: D3H44 Fab heavy chain Q179K; experiment: LCCA, L1:L2 DNA 1:3 normalised to 1:1, SPR of light chain tags; competitor m31
[33] = target: D3H44 Fab heavy chain S186R; experiment: as above
[34] = target: D3H44 Fab heavy chain Q179R; experiment: as above
[35] = target: D3H44 Fab heavy chain L143E_K145T; experiment: as above
[36] = target: D3H44 Fab heavy chain L124W_L143F; experiment: LCCA, L1:L2 DNA 1:3 normalised to 1:1, SPR of light chain tags; competitor m50
[37] = target: D3H44 Fab heavy chain L124A; experiment: as above
[38] = target: D3H44 Fab heavy chain of LCCA set 6036; experiment: as above

H1L1:H1L2 normalized median ratio [1]: 22% | H1L1:H1L2 normalized median scalar value ln(r1/f1) [1]: -1.25 | H2L2:H2L1 normalized median ratio [2]: 7%
Substance: D3H44 light chain S176L

H2L2:H2L1 normalized median ratio [3]: 44% | H1L1:H1L2 normalized median ratio [4]: 41% | H1L1:H1L2 normalized median scalar value ln(r1/f1) [4]: -0.38 | H2L2:H2L1 normalized median ratio [5]: 41%
Substance: D3H44 light chain V133W

H2L2:H2L1 normalized median ratio [6]: 62% | H1L1:H1L2 normalized median ratio [7]: 11% | H2L2:H2L1 normalized median ratio [8]: 58% | H1L1:H1L2 normalized median ratio [9]: 26%
Substance: D3H44 light chain V133S

H2L2:H2L1 normalized median ratio [10]: 72% | H2L2:H2L1 normalized median ratio [11]: 61% | H2L2:H2L1 normalized median ratio [12]: 61% | H2L2:H2L1 normalized median ratio [13]: 93%
Substance: D3H44 light chain, wild type

H1L1:H1L2 normalized median scalar value ln(r1/f1) [14]: 0.03 | H1L1:H1L2 normalized median scalar value ln(r1/f1) [15]: -0.14
Substance: D3H44 light chain Q124R_Q160K_T178R

H2L2:H2L1 normalized median ratio [16]: 90% | H1L1:H1L2 normalized median ratio [17]: 26%
Substance: D3H44 light chain Q124E_V133D_S176L

H1L1:H1L2 normalized median ratio [17]: 31% | H2L2:H2L1 normalized median ratio [18]: 86%
Substance: D3H44 light chain Q124E_V133E_S176L

H1L1:H1L2 normalized median scalar value ln(r1/f1) [19]: 1.06 | H1L1:H1L2 normalized median scalar value ln(r1/f1) [20]: 0.82 | H1L1:H1L2 normalized median scalar value ln(r1/f1) [21]: 0.71
Substance: D3H44 light chain Q124R

H1L1:H1L2 normalized median scalar value ln(r1/f1) [22]: 3.12
Substance: D3H44 light chain S121C_C214S

H1L1:H1L2 normalized median ratio [23]: 49% | H2L2:H2L1 normalized median ratio [24]: 96%
Substance: D3H44 light chain Q124E_V133E

H1L1:H1L2 normalized median scalar value ln(r1/f1) [25]: 1.24 | H1L1:H1L2 normalized median scalar value ln(r1/f1) [26]: 1.84
Substance: D3H44 light chain S162C_C214S

H1L1:H1L2 normalized median scalar value ln(r1/f1) [27]: 2.54
Substance: D3H44 light chain Q124E_V133W_T180E

H1L1:H1L2 normalized median scalar value ln(r1/f1) [28]: 1.39 | H1L1:H1L2 normalized median scalar value ln(r1/f1) [29]: 1.37
Substance: D3H44 light chain F116C_C214S

H2L2:H2L1 normalized median ratio [30]: 96% | H1L1:H1L2 normalized median ratio [31]: 53% | H2L2:H2L1 normalized median ratio [32]: 97% | H2L2:H2L1 normalized median ratio [33]: 95% | H2L2:H2L1 normalized median ratio [34]: 97% | H1L1:H1L2 normalized median ratio [35]: 54%
Substance: D3H44 light chain S131E

H2L2:H2L1 normalized median ratio [36]: 56% | H1L1:H1L2 normalized median ratio [37]: 59% | H2L2:H2L1 normalized median ratio [38]: 59%
Substance: D3H44 light chain V133A
